# Assay results: publication PMC6446281
# Experiments:
# HA-SUMO3 [1] = target: HA-SUMO3 (UniProt P55854); test: co-IP (IP anti-HA, WB anti-GFP) with densitometric analysis; conditions: 293 T cells cotransfected with GFP-INwt/mut and HA-SUMO3; parent: est. 1.0; read off a plot
# HA-SUMO3 [2] = target: HA-SUMO3 (UniProt P55854); test: co-IP; 293T cells cotransfected with GFP-INwt/mut and HA-SUMO2 or HA-SUMO3, 40 h; lysis buffer 20 mM Tris-HCl pH 7.5, 100 mM NaCl, 0.5% NP-40, 0.5 mM EDTA; immunoprecipitated with anti-HA, blotted with anti-GFP; densitometry with GFP-INwt set as 100%
# [3] = target: GFP-IN 3VI mutant (V72A/I73A, I200A/V201A, V259A/V260A) (HIV-1); test: co-IP
# [4] = target: M1 + M2 and M1 + M3 mutants; test: co-IP; 293T cells cotransfected with GFP-INwt/mut and T7-LEDGF/p75, T7-Ku70 or HA-Ubc9; immunoprecipitated with rabbit anti-GFP, blotted with anti-T7 or anti-HA
# M2 and M3 = test: as above
# T7-Ku70, sequence (P12956 whole entry): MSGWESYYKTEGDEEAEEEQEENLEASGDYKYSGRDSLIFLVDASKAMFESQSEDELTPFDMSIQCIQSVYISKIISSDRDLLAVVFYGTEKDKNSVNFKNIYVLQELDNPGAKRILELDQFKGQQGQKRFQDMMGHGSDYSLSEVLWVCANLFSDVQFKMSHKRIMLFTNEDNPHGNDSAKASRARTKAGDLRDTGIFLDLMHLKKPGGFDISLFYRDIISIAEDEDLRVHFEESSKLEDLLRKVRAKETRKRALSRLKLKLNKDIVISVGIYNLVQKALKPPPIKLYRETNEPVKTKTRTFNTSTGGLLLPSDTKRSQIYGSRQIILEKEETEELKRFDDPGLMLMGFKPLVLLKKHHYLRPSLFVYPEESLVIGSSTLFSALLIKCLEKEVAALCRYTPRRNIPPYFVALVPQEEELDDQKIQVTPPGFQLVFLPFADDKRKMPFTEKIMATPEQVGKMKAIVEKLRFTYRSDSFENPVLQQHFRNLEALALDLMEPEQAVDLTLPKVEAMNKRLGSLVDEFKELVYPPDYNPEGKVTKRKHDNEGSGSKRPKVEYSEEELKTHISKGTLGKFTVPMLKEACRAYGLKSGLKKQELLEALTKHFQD
substance,measurement,setting,value
"GFP-IN wild type (HIV-1 integrase, codon-optimized, fused to AcGFP) K46R; K136R; K244R",ratio to parent,HA-SUMO3 [1],1.1
"GFP-IN wild type (HIV-1 integrase, codon-optimized, fused to AcGFP) V72A; I73A",ratio to parent,HA-SUMO3 [1],1.2
GFP-IN mutant M3 (V259A/V260A) (enzyme),percent reduction in binding against GFP-INwt,HA-SUMO3 [2],67%
T7-Ku70 (from UniProt P12956 1-609) (natural protein),fold change in binding against INwt,[3],2 fold
"GFP-IN wild type (HIV-1 integrase, codon-optimized, fused to AcGFP) V72A; I73A; I200A; V201A; V259A; V260A",ratio to parent,HA-SUMO3 [1],0.01
T7-LEDGF/p75 (lens-epithelium-derived growth factor) (from UniProt O75475 1-530) (natural protein),percent of the binding of INwt,[3],< 10%
same,percent of the binding of INwt,[4],10 to 20%
same,percent of the binding of INwt,M2 and M3,40 to 60%
GFP-IN mutant M2 (I200A/V201A) (enzyme),percent reduction in binding against GFP-INwt,HA-SUMO3 [2],80%
